Experimental data from PMC11436023.

Legend:
[1] = target: CAP255 gp140 SpyTag (HIV-1 subtype C (patient CAP255)); assay: SEC + native gel or EMSA; lectin-purified CAP255 gp140 SpyTag on HiLoad 16/600 Superdex 200 pg; fractions on Blue NativePAGE 3-12% Bis-Tris gels, Coomassie
[2] = target: SpyCatcher mi3 nanoparticle; assay: cryo-EM structure; CAP255 gp140 SpyTag-SpyCatcher mi3 NPs; whole NP 9.4 Å (icosahedral), masked mi3 5.4 Å, single Env trimer-SpyCatcher 17.7 Å without symmetry
[3] = target: SpyCatcher mi3 nanoparticle; assay: negative stain electron microscopy; NPs alone or after coupling, on glow-discharged carbon-coated grids, 2% uranyl acetate; 2D classification and ~20 Å 3D maps with icosahedral symmetry imposed
[4] = target: SpyCatcher mi3 nanoparticle; assay: covalent SpyTag-SpyCatcher coupling, read by SDS-PAGE; MBP SpyTag mixed with SpyCatcher mi3 NPs at 1:1 and 1:2 molar ratios, 4 °C overnight, TBS (25 mM Tris-HCl, 300 mM NaCl, pH 8.5); Coomassie-stained SDS-PAGE, band intensities quantified

Substance | stoichiometry N [1] | stoichiometry N (Env trimers per NP) [2] | stoichiometry N (Env trimers per NP) [3] | coupling efficiency [4] [%] | stoichiometry N (MBP monomers per NP) [4]
CAP255 gp140 SpyTag (domain or fragment) | 3 | 12 | 12 |  | 
MBP SpyTag |  |  |  | 100 | 60
